{"source": "patent US20200292555", "proteins": {"B1": {"name": "recombinant, purified active CASP10 (protein)", "chain": "VKTFLEALPQESWQNKHAGSNGNRATNGAPSLVSRGMQGASANTLNSETSTKRAAVYRMNRNHRGLCVIVNNHSFTSLKDRQGTHKDAEILSHVFQWLGFTVHIHNNVTKVEMEMVLQKQKCNPAHADGDCFVFCILTHGRFGAVYSSDEALIPIREIMSHFTALQCPRLAEKPKLFFIQACQGEEIQPSVSIEADALNPEQAPTSLQDSIPAEADFLLGLATVPGYVSFRHVEEGSWYIQSLCNHLKKLVPRMLKFLEKTMEIRGRKRTVWGAKQISATSLPTAISAQTPRPPMRRWSSVS"}}, "target": "T1, Ac-DEVD-CHO", "T1 chain": "DEVD"}
{"protein": "B1", "values": [{"measurement": "activity of recombinant, purified active CASP10 (500 nM; fluorometric AEVD-AMC substrate in MDA-MB-231 lysate)", "value": "DEVD-CHO ... (20 µM) inhibited the activity of CASP10"}]}
